In patent publication US8536121B2, “Methods and reagents for the diagnosis, prevention and treatment of insulin resistance using beta-arrestin2 and its up-regulators” (Shanghai Institutes for Biological Sciences, CAS, priority 2008, dated 2013):

Tests used:
[1] = system: Akt; experiment: Insulin-stimulated Akt phosphorylation in Hep3B hepatocytes treated with inhibitors (immunoblot); type: cell-based, human; conditions: 10 μM PP2 or 100 nM Wortmannin for 30 min, then 100 nM insulin
Protocol: (§1) FIG. 4A, Activation of PI3K by insulin in livers of βarr2-ko mice (n=6), βarr2-tg mice (n=6) and their wild type littermates (n=6). Mice were injected with either saline or insulin (1 U·kg^−1) for 10 min. PI3K were immuno-purified from liver extracts and PI3K activity were measured by ELISA. Data are presented as mean ±s.e.m. *P<0.05, **P<0.005, versus control. FIG. 4B, FIG. 4C, Activation of Akt and downstream targets by insulin in livers of βarr2-ko mice (n=6) (FIG. 4B), βarr2-tg mice (n=6) (FIG. 4C) and their wild type littermates (n=6). Liver protein extracts prepared as in A were used for immunoblot analysis of pAkt, pFoxol, and pGSK3. […] FIG. 4E, Src-dependent activation of Akt. Hep3B hepatocytes were treated with or without 10 μM Src inhibitor PP2 or 100 nM PI3K inhibitor Wortmanin for 30 min, and then stimulated by 100 nM insulin. Phosphorylation levels of Akt at serine/threonine or tyrosine (n=6) were shown. […]
(§2) After mouse is sacrificed, mouse tissues are quickly excised and frozen in liquid nitrogen. Tissue lysate is prepared and protein concentration is determined by Bradford method. […] For immunoblotting, protein bands, emitting infrared fluorescence through excitation of IRDye800CW conjugated secondary antibody, are obtained by Odyssey infrared imaging system, followed by using Scion Image software (Li-Cor Bioscience, Lincoln, Nebr., USA) to perform quantitative analysis. […]

[2] = system: wild type littermates and βarr2-ko mice; experiment: Insulin tolerance tests (ITTs); type: in vivo, mouse; conditions: intraperitoneal 1 U·kg^−1 insulin
Protocol: (§3) For GTTs, mice are injected intraperitoneal with glucose after starvation for 6 hours. Blood glucose is measure at indicated time points. Mice are injected intraperitoneally under fed conditions for ITTs. Blood are collected and determined the glycemia using a glucometer (Roche Accu-chek). Serum insulin levels are measured using rat/mouse ELISA kit.

[3] = system: Akt; experiment: Akt phosphorylation in liver of mice injected with insulin (immunoblot); type: in vivo, mouse
Protocol: as §1, §2

[4] = system: Akt/βarrestin2/Src complex; experiment: Akt/βarrestin2/Src complex formation in liver of C57BL/6 mice injected with insulin (immunoprecipitation); type: in vivo, mouse; conditions: C57BL/6 mice livers, intraperitoneal insulin 1 U·kg^−1, time-dependent
Protocol: (§4) C57BL/6 mice (n=6) were injected with 1 U·kg^−1 insulin for the indicated times, and liver protein extracts were prepared for immunoprecipitation using anti-Akt antibodies. […] Liver protein extracts prepared as described in a were subjected to immunoprecipitation for IRβ. […] Liver protein extracts prepared from βarr2-ko (n=6), βarr2-tg (n=6), their wild type littermates (n=6) as described were subjected to immunoprecipitation for IRβ. Akt and Src associated with IRβ were detected on immunoblots. […] Hep3B hepatocytes overexpressing HA-βarrestin2 186-409 or βGal were subjected for immunoblot analysis of pAkt, pFoxol, and pGSK3. All mice were 8-weeks old fed with a regular diet.
as §2, with “method. For immunoprecipitation, add relevant antibodies to cell lysate, incubate at 4° C. overnight, add protein A or protein G agarose beads, incubate at 4° C. for 2 h.” for “method.”

[5] = system: PI3K; experiment: PI3K activity (ELISA) in liver of mice injected with insulin; type: in vivo, mouse; conditions: insulin 1 U·kg^−1 for 10 min; wild type, βarr2-ko and βarr2-tg mice
Protocol: as §1, with “shown. FIG. 4F, Tyrosine phosphorylation of Akt induced by insulin in livers of βarr2-ko mice (n=6), βarr2-tg mice (n=6) and their wild type littermates (n=6). Akt immuno-purified from protein extracts made in FIG. 4B and FIG. 4C was subjected to immunoblot using antibodies against phosphorylated tyrosine. All mice were 8-weeks old fed with a regular diet. Data are presented as mean ±s.e.m. *P<0.05, **P<0.005, versus control.” for “shown.”

[6] = system: Akt/Src complex; experiment: Akt/Src interaction in Hep3B hepatocytes overexpressing βarrestin2 mutant (anti-Akt immunoprecipitation); type: cell-based, human; conditions: overexpressed in Hep3B hepatocytes, vs βGal
Excerpt: (§5) FIG. 5B, Interaction of Akt and Src in liver of wild type littermates but not βarr2-ko mice. Liver protein extracts from βarr2-ko mice (n=6) and their wild type littermates (n=6) were used for immunoprecipitation by anti-Akt or anti-Src antibodies. FIG. 5C, Enhanced interaction of Akt and Src in liver of βarr2-tg mice. Liver protein extracts from βarr2-tg mice (n=6) and their wild type littermates (n=6) were used for immunoprecipitation by anti-Akt or anti-Src antibodies. […] HA-βarrestin2 that co-immunoprecipitated from Hep3B hepatocytes overexpressing Akt or Src without or with HA-βarrestin2, HA-βarrestin2 1-185 was shown on immunoblots using anti-HA antibodies (n=3). FIG. 5F, Hep3B hepatocytes overexpressing HA-βarrestin2 1-185 or βGal were subjected to immunoprecipitation using anti-Akt antibodies. Akt, Src in the immunopurified complex were shown on immunoblots (n=3). […]
as §2

[7] = system: Akt; experiment: Insulin-stimulated pAkt, pFoxo1, pGSK3 in Hep3B hepatocytes overexpressing βarrestin2 mutants (immunoblot); type: cell-based, human; conditions: overexpressed in Hep3B hepatocytes, vs βGal
Excerpt: FIG. 5B, Interaction of Akt and Src in liver of wild type littermates but not βarr2-ko mice. Liver protein extracts from βarr2-ko mice (n=6) and their wild type littermates (n=6) were used for immunoprecipitation by anti-Akt or anti-Src antibodies. FIG. 5C, Enhanced interaction of Akt and Src in liver of βarr2-tg mice. Liver protein extracts from βarr2-tg mice (n=6) and their wild type littermates (n=6) were used for immunoprecipitation by anti-Akt or anti-Src antibodies. […] HA-βarrestin2 that co-immunoprecipitated from Hep3B hepatocytes overexpressing Akt or Src without or with HA-βarrestin2, HA-βarrestin2 1-185 was shown on immunoblots using anti-HA antibodies (n=3). FIG. 5F, Hep3B hepatocytes overexpressing HA-βarrestin2 1-185 or βGal were subjected to immunoprecipitation using anti-Akt antibodies. Akt, Src in the immunopurified complex were shown on immunoblots (n=3). […] Hep3B hepatocytes overexpressing HA-βarrestin2 1-185 or βGal were stimulated by insulin and then subjected to immunoblot analysis of pAkt, pFoxol, and pGSK3. All mice were 8-weeks old fed with a regular diet.
as §4
(§6) After mouse is sacrificed, mouse tissues are quickly excised and frozen in liquid nitrogen. Tissue lysate is prepared and protein concentration is determined by Bradford method. For immunoprecipitation, add relevant antibodies to cell lysate, incubate at 4° C. overnight, add protein A or protein G agarose beads, incubate at 4° C. for 2 h. Proteins that bind protein A or protein G agarose beads are washed in SDS sample buffer and treated at 50° C. for 20 min followed by SDS-PAGE separation and through immunoblotting method to determine relevant proteins. For immunoblotting, protein bands, emitting infrared fluorescence through excitation of IRDye800CW conjugated secondary antibody, are obtained by Odyssey infrared imaging system, followed by using Scion Image software (Li-Cor Bioscience, Lincoln, Nebr., USA) to perform quantitative analysis. […]

[8] = system: Akt; experiment: Co-immunoprecipitation of βarrestin2 truncation mutants with Akt in Hep3B hepatocytes; type: binding, human; conditions: HA-tagged mutant
Excerpt: as §5, with “(n=3).” for “(n=3). FIG. 5F, Hep3B hepatocytes overexpressing HA-βarrestin2 1-185 or βGal were subjected to immunoprecipitation using anti-Akt antibodies. Akt, Src in the immunopurified complex were shown on immunoblots (n=3).”
(§7) C57BL/6 mice (n=6) were injected with 1 U·kg^−1 insulin for the indicated times, and liver protein extracts were prepared for immunoprecipitation using anti-Akt antibodies. […] Akt and Src associated with IRβ were detected on immunoblots. […]
as §2

[9] = system: C57BL/6 mice; experiment: Adenovirus encoding βarrestin2 mutants injected into C57BL/6 mice (blood glucose, GTTs, ITTs); type: in vivo, mouse; conditions: for insulin tolerance in ITTs: 1 U·kg^−1, 7 days after adenovirus injection; for glucose tolerance in GTTs: 1 g·kg^−1, 7 days after adenovirus injection; for blood glucose levels: adenovirus, all time points, vs control mice
Excerpt: C57BL/6 mice were 8 -weeks old fed on regular diet (RD). Data are presented as mean ±s.e.m. *P<0.05, **P<0.005, versus control.
(§8) βarr1-ko and βarr2-ko mice are provided by Dr. Robert J. Lefkowitz (Duke University Medical Center, Durham, N.C.). βarr1-tg and βarr2-tg mice are generated as described (Shi, Y., et al., “Critical regulation of CD4+ T cell survival and autoimmunity by beta-arrestin 1,” Nature Immunol., 8, 817-24 (2007)). All other mice are from Shanghai Laboratory Animal Center, Chinese Academy of Sciences. Animal experiments are performed in accordance with the National Institutes of Heath Guide for the Care and Use of Laboratory Animals. Mice are fed with a regular diet (Formulab 5008, Labdiet 5053) or high-fat diet (55% fat calories) (Harlan-Teklad 93075) and have free access to water and diet. Adenovirus (7×10^9 viral particle/100 μl saline) is injected into the tail vein of db/db mice and C57BL/6 to specifically target the liver. Body weight and food intake are measured as described in: Netea, M. G., et al., “Deficiency of interleukin-18 in mice leads to hyperphagia, obesity and insulin resistance,” Nature Medicine, 12, 650-6 (2006).
as §3
The CsCl purified adenovirus are used as a saline solution (7×10^9 virus particles per […]) and injected through tail vein.

[10] = system: db/db diabetic mice; experiment: Adenovirus injection into db/db diabetic mice (blood glucose, GTTs, ITTs, body weight, food intake, liver βarrestin2); type: in vivo, mouse; conditions: adenovirus encoding mutant, vs βGal
Protocol: as §8
For GTTs, mice are injected intraperitoneal with glucose after starvation for 6 hours. Blood glucose is measure at indicated time points. Mice are injected intraperitoneally under fed conditions for ITTs. Blood are collected and determined the glycemia using a glucometer (Roche Accu-chek). Serum insulin levels are measured using rat/mouse ELISA kit. […]

[11] = molecular target: T1, Src (Homo sapiens, UniProt P12931); experiment: Co-immunoprecipitation of βarrestin2 truncation mutants with Src in Hep3B hepatocytes; type: binding; conditions: HA-tagged mutant
T1 construct: Full length of Akt and Src are cloned into modified pcDNA3 vector in-frame with HA or Flag at the N-terminus; expressed in transfected cells; host or cells: Hep3B
Excerpt: as §5, with “(n=3).” for “(n=3). FIG. 5F, Hep3B hepatocytes overexpressing HA-βarrestin2 1-185 or βGal were subjected to immunoprecipitation using anti-Akt antibodies. Akt, Src in the immunopurified complex were shown on immunoblots (n=3).”
as §7, §2

[12] = molecular target: T2, IRβ (Homo sapiens, UniProt P06213); experiment: Co-immunoprecipitation of βarrestin2 truncation mutants with IRβ in Hep3B hepatocytes; type: binding; conditions: HA-tagged mutant
T2 construct: IR immunoprecipitated from Hep3B hepatocytes; endogenous in cells; host or cells: Hep3B
Protocol: as §4
as §6, with “Proteins that bind protein A or protein G agarose beads are washed in SDS sample buffer and treated at 50° C. for 20 min followed by SDS-PAGE separation and through immunoblotting method to determine relevant proteins.” left out

| Molecule | insulin-stimulated phosphorylation (activation) of Akt [7] | interaction with Akt [8] | insulin tolerance in ITTs [9] | glucose tolerance in GTTs [9] | blood glucose levels [9] | insulin resistance [10] | interaction with Src [11] | further results |
| --- | --- | --- | --- | --- | --- | --- | --- | --- |
| CC(C)(C)n1nc(-c2ccc(Cl)cc2)c2c(N)ncnc21 [PP2] | – | – | – | – | – | – | – | serine/threonine phosphorylation of Akt [1]: remarkably reduced; tyrosine phosphorylation of Akt [1]: remarkably reduced |
| insulin: insulin injected into mice or added to cells as stimulus | – | – | – | – | – | – | – | blood glucose in ITTs [2]: time-dependent reduction; increase in tyrosine phosphorylation of Akt ([3]; liver of wild type mice, insulin stimulation): ~2 fold; increase in the phosphorylation of Akt at Thr308 or Ser473 in liver ([3]; wild type mice, insulin 1 U·kg^−1 for 10 min): ~3 fold; Akt/Src interactions [4]: marked increase; Akt/βarrestin2 association [4]: marked increase; increase in PI3K activity in liver [5]: ~3 fold |
| βarrestin2 1-185: truncated form of βarrestin2 containing amino acids 1-185, dominant negative mutant; overexpressed in Hep3B or delivered by adenovirus (protein, left off: small tags and cut ends, overexpressed in Hep3B or delivered by adenovirus) MGEKPGTRVFKKSSPNCKLTVYLGKRDFVDHLDKVDPVDGVVLVDPDYLKDRKVFVTLTCAFRYGREDLDVLGLSFRKDLFIATYQAFPPVPNPPRPPTRLQDRLLRKLGQHAHPFFFTIPQNLPCSVTLQPGPEDTGKACGVDFEIRAFCAKSLEEKSHKRNSVRLVIRKVQFAPEKPGPQPSA | markedly reduced | not Akt | impair | impair | higher | aggravates | interacts with Src | Akt/Src interactions [6]: inhibits; insulin-stimulated phosphorylation of Foxo1 [7]: markedly reduced; insulin-stimulated phosphorylation of GSK3 [7]: markedly reduced |
| βarrestin2 186-409: truncated mutant of βarrestin2 that interacts with IR but not Akt or Src; overexpressed in Hep3B or delivered by adenovirus (protein, left off: small tags and cut ends, overexpressed in Hep3B or delivered by adenovirus) ETTRHFLMSDRSLHLEASLDKELYYHGEPLNVNVHVTNNSTKTVKKIKVSVRQYADICLFSTAQYKCPVAQLEQDDQVSPSSTFCKVYTITPLLSDNREKRGLALDGKLKHEDTNLASSTIVKEGANKEVLGILVSYRVKVKLVVSRGGDVSVELPFVLMHPKPHDHIPLPRPQSAAPETDVPVDTNLIEFDTNYATDDDIVFEDFARLRLKGMKDDDYDDQLC | suppresses | not Akt or Src | impair | impair | higher | aggravates | not Akt or Src | interaction with IRβ [12]: interacts with IRβ |
